In the DeepSol protein solubility set:

test: soluble on expression in E. coli; label from the status in PepcDB or PDB records

Sequence	soluble on expression in E. coli
MSFQQPQASPISPGDSGWLIKMRKNRYLDHTSKVNEPKKYRSMDQLPTGKVGAPDNEKSEGTDPLHWQLRKDFHLAKYSERRASYHVESSSYIHSSQQIQHPPQQHHPPPPSPPPVAETIQHQPHPSQQQPSTTTISSRQLYKSQLLYPPGSTENIASEHKPAIRPPEKSVYENNPIAPSELNVQVKRAPPQGPPPPPPPQAPADIDYPERLMSPPPTHQPRSILKGYSSQQYYSQTNLTESHHHQSSQETSLNPQQMHPRPSDRRTPTHFEDLSEDEKTRIMHENLQRHRNMRSGPNGPRPTTTSFNGPFFRLEQVNPGQNQPQQPQYQQHPRSQSVDPSGDMNGGPRPIHQNFSASEIELHHYSRNAEPSVVVWPPVSEKERERPSSVLAKNFNDPERIDEYQRQKRLEYEAIQRTNEKQAVSMAKQVNAMMQQQKLYERSHGMTSPVPIMESISPQPQVSHHHHQPQQHQQHQPQQQYYPSPPPPPQPYRDPEPVFNPVQVYETRPISALSDQIDQPPSQQAPTSWKRTYIVERPRDVAKNEIITSDQLLEKEAYDVDLLKRRETFVEKPEEAPRINRLGRRWQPPPERPYVWPTLRRAMSVEPSSMPVDFAPGVPHNYDDNEEYKWEPVVNDPGYKKEDKNFTPVNSPPASPRRGHGVGPLDEPARRQAKYVIQPSPDGSHRPKAVFRKERHAPSGGFYPHAPNAIKVVKKRAQSVQGLLSPTDNVEVIHQRNYHRLDLEQNGHHGQKLRRSQHGGSEMDLRRSTQEMPDWEKIYELPPHSSQIVQKDMPRHVDVQRRLSKFEGSIQNLRAATSTQHLDSMQQLHFPMPDYEPPQPPQQRRRTESSGYRGGPPPPPPMPQQQPREMSRRNSVASTRIDSPSLMIPHHRQSRSDSRGPPQMSRAASSIPLSPQPTPQHHHHHHSQRPTTPGATRARNYIARATAPSPTPYSYDRARAYVPPALPPGYRLADPIPDQRAMSPSPGHTRKLIRNVSESAQRLHPSGSTPQTSRAPSRHSHRQSPNPRFL	not soluble
MGSDKIHHHHHHMDLRQLPALNAIRAFEAAARHENFSRAADELFVTHGAVSHQVRALEEELGVQLFARNGKRLCLTGAGMRYAQQVRTALMMLADATREVRASDRDRRLVVSMLSSFAARFVTPRIGTFIERHPEIDVELQSTNNLTDFARDDVDLAIRFGFGNYPGLHVEPLFDEVFFPACAPTLNGGKLPQTPADLVHYNLLRSDDELWRPWFDAAGLDTLTEPKRGILYQDSSNLLLAAIEGQGIALVRRSLAVHDLLDGRLVRLFDIDGASPWHYFFVCPPPLLNAPRVQAFRAWMFEEVAQFKLLCDELDARRAAGKTPAECAQEGGWKGLRAQP	not soluble
MSKVALFAGGDLSYISRDFDYFVGIDRGSLFLLENGLPLNMAVGDFDSVSQKAFTDIKEKAELFITAHPEKNDTDTELALKEVFARFPEAEVTIFGAFGGRMDHLLSNIFLPSDPGIAPFMAQIALRDQQNMITYRPAGQHLIHQEEGMTYVAFMAEGEADLTITGAKFELTQDNFFKKKIYSSNAFIHQPITVSLPSGYLIIIQSKDWS	soluble
MIAEFESRILALIDGMVDHASDDELFASGYLRGHLTLAIAELESGDDHSAQAVHTTVSQSLEKAIGAGELSPRDQALVTDMWENLFQQASQL	not soluble
MAIKITPDEFSLLIQRLNKKWRVFAPSAEFRGGRFSDTDNIIYQRISGWRDLIWHEKSHMSPNTIIAPITETLFYFDKDTIQIAETDTSPIIIFARACDINAMSRLDYMYLSNGNNSDYSYQLLREHIRFVLIECEESFENCFCVSMGTNKTDCYSAAMRFSDEGALVSIRDPFIEAAIQGLGQEADYTPSFVSENRETVVTPDSVCHDPQKIRDILTHHPLWDAYDSRCISCGRCTTGCPTCTCYSVFDVAYDENPQRGERRRQWASCMVPGFSDMAGGHGFREKPGERLRYRALHKVNDYKARNGIEHMCVGCGRCDDRCPQYIKFSLIINKMTAAVRQALAEEA	not soluble
MKSFVLFALFSVAAAQFGGYGRGRGGPGGPGGFEGGPAGAGGFQGNGAGELTYEAKGRLICGLTGVDKVRVVLWDRFRGRENIIYDETNTDVVGNFRLRATRNGFDGNLIQPFLTIYHDCDDASTPGLRKMTVQLPPQYTNQGSLALKSFDIGTWNLETSFAGEELEIQNGGLGGRPIGGSSFGQGNRGQFGGNREIFAHGGRSDFGDSSISV	not soluble
MGSDKIHHHHHHVAISVAGGVRPGKIIEIEHRLYQQLILGKHKASPTLLDDLDLELEADANKLDVEREAILARLMKQIKAKEVFEAVSSQLHETVNNAIEHQLASPELVLAKSEINESQILLLELLLAKNLDATRLRPLISNLSWLCRDLTNMVNSPSFRARRPQSSDVRVTDIKLVMNYIGIENLRTIIPYFCLRNWLPSANAKLLWTTRKLWRYSIVSGIAANALAQLHNTDSALVYSSALLNQLGTSVVLSLSARLFDQTWGAWIREASSSRDKEVYDAVIATEFPAKAVFEQVLSHGHKLNWQLLELLKFEASPLTGLLKELDLTLSYRELSPQAALVARANCYAKVVLLEEMRQIDPQEKRLMFDYYELTEQEVLRLKAQNYRKLDLL	not soluble
HYTSPTVIQAIYNAVEQMDFTPGTVLEPSMGIGNFFGMLPEKLAAAKLYGVELDDLTGRIARQLYQKADITVDGFERTDHPDDFFDLAVGNVPFGSYQVHDKRYDRQNLMIHDYFITKTLDKVRPGGIVAFITTKGTMDKKNSKAREALAQKADLLGAVRLPSNAFKANAGTEVTTDILFFQKRDRIPEKLPEWVEVGQTEDGIPLNRYFLDHPEMVLGTM	not soluble
MGSDKIHHHHHHMDCFYDYHKSLSPDEYVWDYEEFLYYGSDKFIKDVFVDGGVDIALSQPAYLQFFFREPFGNTNEFGTMALKYPYRFIIGTRWDPREGEEGKRQLEEDVRKYRVKPWQMRHVKLYTAEWKEVNGGISRGWRLDSPQAFEFLEFNRELGIDIQVPHKGPTVWPLSKDAFDVHDVDTAASSFPELRFVVTHVGLPRIDDFSWIGVQDKNVYAGLAVATAFIRKRPKYFAEIMAELLFWLGPDRIIFGSDYAIWHPKWIIEDFIKFELPRDLESEYGVELTLENKKKILGENAARLWGIDVEEAKKAVREDQIASRYGAKPRVFKVEG	not soluble
MCETCLIVIMDSSHDFSFADTFALQVATWFSDVFAQPTVVQRQAWAAISAGENALVVAPTGSGKTLAAFLWALNELVQGSGQTALLSRQAAGSAEVEASRAKGVKVVYISPLKALGVDVENNLRAPLTGINQVAARLGIDQSDITVGVRSGDTPASERSKQVRNPPDILITTPESLYLMLTSKARSILTTVDTVIVDEIHAMAGTKRGVHLALSLERLEHLAAQPVQRIGLSATVRPLDVVARFLGGDRPVEVINPPLEKKWQLAVHVPVDDMSDLPTPEPVSEIGEATIDDPLGLTTQPEGFAESALPAQGSMWTFIEQDVFDEVMEHRSTLVFVNSRRTAERLTSRLNELYAQRFQPEALSPALRRPPAQLMKSIDIAGEATAIIARAHHGSVSKDERALTEKMLKQGELRAVVSTSSLELGIDMGAVDKVIQVESPPSVASGLQRVGRAGHVVGAVSHGSFYPKHRADLVQTAVTVGRMTEGLIEELHVPTNALDVLVQHTVAAVAMDDLDVEDWYATVVRAYPYRDLPREAFDAAIDLTAGVYPSTDFAELRPKVIYDRITGTLSARPGAQRTAVINGGTIPDRGMFGVFLVGSGESGAPRRVGELDEEMVYESRVGDVFTLGASSWRIEEINKDQVLVTPAPGHTGRLPFWTGDQAGRPAELGKALGAFRRTLVADPSVVEGMGLDVRARSNVVAFIQQQQESTGVVPDEVTLVLERFRDELGDWRVVLHSPYGRGVNAAWALVAGAAFSQRTGMDAQPVASDDGIVLRVPESDAEPGADLFEIDPDTVEELVAQQVGNSALFAARFRECAARALLLPSRTPGKRAPLWQQRQRAAQLLDVARKYPSFPIVLETVRECLHDVYDLDALVELAAALKLRKVRIAEVTTQQP	not soluble
MGSDKIHHHHHHMIEYRIEEAVAKYREFYEFKPVRESAGIEDVKSAIEHTNLKPFATPDDIKKLCLEARENRFHGVCVNPCYVKLAREELEGTDVKVVTVVGFPLGANETRTKAHEAIFAVESGADEIDMVINVGMLKAKEWEYVYEDIRSVVESVKGKVVKVIIETCYLDTEEKIAACVISKLAGAHFVKTSTGFGTGGATAEDVHLMKWIVGDEMGVKASGGIRTFEDAVKMIMYGADRIGTSSGVKIVQGGEERYGG	soluble
MSLKSSEQMRALFPDHPEACDNTLLLTEMIGSYDEVFKYVDRMPQFDVPEGETQESWLRKKLQEGLDEKFGPNPPKEVLERLETELSVIEPLGFASYFLVVSDICNAARSMGVPVGPGRGSAAGSLVAYLTGIIAINPLEHGLLFERFLNPERVNPPDIDLDFDDRQRDKVIDYVTHKYGAEYTSQVNTFGKIKAKAAVKDANRILGYPFALGDKITKAMPPDVMGKGVPLDKIFDSSHERYGEGQEFRQLVADNPDVAKVVETAKGLEGLIRGTGVHACAFILSSTPLLDLVPMHKRDKDGMIIAGFAYPQLEEMGLMKMDFLGLRNLGIMDHCIKIIKANRGIDVDLKNIALDDKTTYEMLARGDTLGVFQLDGTAMRSLLRLMGPTCFDDIVAVLALYRPGPMGANAHISYAQRKNNREPIIPIHPELKEDLDEILAPTYHLIVYQEQIMSIARKLAGYTLGGADLLRRAMGKEGHHHHHH	soluble
MAHHHHHHMEGSSGHLKSTAVAHNDGQALPPAAGAGHAPPTSNAAAGQQKTDQPPIAAVPVMSVAERAAATAEAERALSLLCTIRAVRRQTEELTVLLLHACGEWGCWSVPTAEEGVACETTRTPLPSSPLPGRIRHSQHLFADLFVAAPLAPTAFCTSSSVSLVGVSDGTAKADLLDLSAGEDADPARLSAASVFAKESACRRERACQALRQALQQQQQRWSLSTAAAATATLAAGAAFLEMALAPPQRAVPPPPPMSVQLDLYAVQPCALQRSIQEWRPRAAQTTAAGATKAGGTSPPEEAASLHCSLQQLLHTLGRQGPQLQSSYDVLHAAAGQRHRTNTRSCTDEQRGVPPREATTGVIKAAEARAVVHKTHGTSAAASDAPQEVEVPPLPSSSSPLAVAPDTLRRTPSSLPRQHSSTTPSSSSQALPSSDTLLSSPVQLAVDHTRLWADPPTPLQRADFSCAAAAAPTSTEISERGARIPVHQAGRSVLEDASSHRTKGKPELEAHVEVEVIGGNADGSHAAAGASSSNSTQVTNMRRTSLSSSTFFHSPVAVDARGGVVGALREVYEASWQPCSNARPSTRPEAAHAVAVAEEKLASQHQEERRSRRCDRGGSATAVELEDSVRRHLTRWMSQQPNDRAWVSGGPGLGPASFLLDPIRHAPGSSRAATRATDATAPALGQGAGRDRRGSRRAVHSGVRVDPIREHAREEGAGAGTESPLDAWPRPGARTAGPRGPGCSRSAAEMSELQLCMCVLLA	soluble
TLLPQVQVLSWDHYVASSPQIYEPSLMIVAQGSKLARLGPRTLEYGAGHYLVQALSVPFMCETFATREAPLLGVAVGIDRGVLGELVQSMGLAPDAEVQAQTPQSMTSAALDAPMRESVERLLHCLQDPLDAKVLGPARVREVLYTALRGPQAGVL	not soluble
MGSDKIHHHHHHMSQTTLSTIPRLIGQVLSIYDVAPEAIFSAANIDITSDAQTRVPMENMATLWKLAVEATHNNELGLVAASLFQPVYLKSIGLAWLASENLEEGLKRYIASSQLINTEMQIELTERDGIDGEETLIQYQRRLTSSNTIKVHPCAIELGIGFFLKMFRLAAGKNIPATGVYFTFAIEENNKVYEEYFQCPVYGNQAVNGIAFSKALLTETLPTHDVELVEMNEVVINKHLDSMDNGETSSKVIKMINDLLPLGCPTEEVIAYKLHMSKRTLQRKLSVEKQSFLALLTSVRLMLAKEKLANKRVSVTEITYQLGYSSPSTFARAFKKHTQLSPLEYRNQVSSYSSCS	not soluble
MEPGLDGGYLLLGVDWAINDKGDTVYRPVGLPDPDKVQRDLASQCASMLNVALRPEMQLEQVGGKTLLVVYVPEADVTHKPIYKKATGLPGGAYRRIGSSDQRCVDEDLWVLRGLEHHHHHH	not soluble
MKHLSPERLHVTQTAGITQLSPVNGRLYTLTHSDTTGALFLTVSRAFVTDQLTSQRDEVLGEWKQAGQQLVLFLYVFIGNRQMGRQENARRANVFKKELPLALEAIRYGDRAFFHTYPFCDWCPIFIHFTSEYPELNRTEYYGTPYLYR	not soluble
